# Values of other authors in PMC4900764.
# Target: PEX5 (Saccharomyces cerevisiae) (UniProt P35056)
# Test: ITC
# Sequence of UniProt P35056 (P35056 whole entry): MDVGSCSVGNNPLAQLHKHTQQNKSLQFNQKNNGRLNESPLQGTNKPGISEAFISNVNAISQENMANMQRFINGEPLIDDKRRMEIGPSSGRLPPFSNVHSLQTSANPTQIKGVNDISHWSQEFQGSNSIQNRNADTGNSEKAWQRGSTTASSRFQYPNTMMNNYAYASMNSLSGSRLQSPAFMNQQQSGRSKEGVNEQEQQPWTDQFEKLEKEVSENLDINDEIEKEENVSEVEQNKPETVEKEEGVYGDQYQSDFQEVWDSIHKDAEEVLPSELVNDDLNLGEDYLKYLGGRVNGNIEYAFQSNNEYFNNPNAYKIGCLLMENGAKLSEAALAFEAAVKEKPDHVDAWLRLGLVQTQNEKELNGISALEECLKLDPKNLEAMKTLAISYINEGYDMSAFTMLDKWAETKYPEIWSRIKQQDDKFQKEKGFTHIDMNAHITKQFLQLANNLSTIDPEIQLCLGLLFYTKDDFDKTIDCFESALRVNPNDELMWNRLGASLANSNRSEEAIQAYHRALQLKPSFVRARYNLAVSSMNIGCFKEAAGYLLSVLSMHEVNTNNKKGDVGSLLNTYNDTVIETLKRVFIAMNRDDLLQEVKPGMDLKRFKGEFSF
substance,measurement,value
PCS60 (from UniProt P38137),Kd,0.19 µM
